Measured values: patent US20230213527A1, “COMPOSITIONS AND METHODS FOR POLYPEPTIDE ANALYSIS” (Quantum-Si Incorporated, priority 2021, published 2023)

Assays:
[1] = molecular target: N-terminal leucine, isoleucine, and valine; experiment: Binding affinity of PS961 (bulk characterization, polarization), N-terminal leucine, isoleucine, valine
From the text: To expand the set of recognizable NAAs, N-end rule pathway proteins were investigated as a source of additional recognizers. In a comprehensive screen of diverse ClpS family proteins, a group of ClpS proteins from the bacterial phylum Planctomycetes with native binding to N-terminal leucine, isoleucine, and valine was discovered. […] The median PD of binding to peptides with N-terminal LAA, IAA, and VAA was 1.21, 0.28, and 0.21 s, respectively, in agreement with bulk characterization (FIG. 7C).
(§1) Binding affinity was measured by polarization using a labeled peptide. The polarization response and total intensity measurements were carried out at 20° C. on a microplate fluorometer with 480 nm excitation and 530 nm emission. The interaction of recognizer with labeled peptide containing a target N-terminal residue (XAKLDEESILKQK-FITC (SEQ ID NO: 833)) was performed in PBS buffer at pH 7.4 and readings were collected after 30 min. Multiple analyses were performed at increasing recognizer concentration at a fixed concentration of a target peptide to obtain a titration curve. An equilibrium polarization response at each concentration was plotted and fit to calculate the KD.

[2] = tested on: N-terminal lysine and histidine; experiment: Polarization binding assay of PS691, peptides with N-terminal arginine, lysine, histidine; details: compared with N-terminal arginine
Method: In a separate screen, a diverse set of UBR-box domains from the UBR family of ubiquitin ligases that natively bind N-terminal arginine, lysine, and histidine were investigated. […] PS691 recognized arginine in a peptide with N-terminal RLA with a median PD of 0.23 s (FIG. 2C).
as §1

B1: PS961: Planctomycetes ClpS variant recognizer for N-terminal leucine, isoleucine, and valine (protein)
chain: MPTAASATESAIEDTPAPARPEVDGRTKPKRQPRYHVVLWDDDDHTYQYVVVMLRSLFGHPPSRGYRMAKEMDTQGRVIVLTTTREHAELKRDQIHAFGRDRLLARSKGSMKASIEAEE
In the case of B1, the Affinity [1] is reported as “sub-micromolar”.

B2: PS691: arginine recognizer generated from the UBR-box domain of K. lactis UBR1 protein (protein)
chain: MHSKFSHAGRICGAKFKVGEPIYRCKECSFDDTCVLCVNCFNPKDHTGHHVYTTICTEFNNGICDCGDKEAWNHTLFCKAEEGGSAGSAAGSGEFMHSKFSHAGRICGAKFKVGEPIYRCKECSFDDTCVLCVNCFNPKDHTGHHVYTTICTEFNNGICDCGDKEAWNHTLFCKAEEGGGSHHHHHHHHHHGGGSGGGSGGGSGLNDFFEAQKIEWHEGGGSGGGSGGGSGLNDFFEAQKIEWHE
In the case of B2, the “Binding to N-terminal lysine and histidine” value [2] is reported as “Lower affinity”.
